From US20160053011A1 (ABCLON, published 2016) come the findings set out here.

One may read the Kd as the concentration at which binding is half-saturated. The term koff denotes a measure of how fast the partners let go of each other. One may read the kon as the second-order rate constant of association.

One assay has as its target ECD. The assay is described as follows: ELISA on HER2 ECD, absorbance; antibody concentration not given. (In general: ELISA stands for enzyme-linked immunosorbent assay.)
Assay [1] deals with T1, HER4 extracellular domain (R&D Systems, #1131-ER-050) (human, UniProt Q15303 26-651).
T1 construct: extracellular domain; Purchased
T1 sequence (looked up): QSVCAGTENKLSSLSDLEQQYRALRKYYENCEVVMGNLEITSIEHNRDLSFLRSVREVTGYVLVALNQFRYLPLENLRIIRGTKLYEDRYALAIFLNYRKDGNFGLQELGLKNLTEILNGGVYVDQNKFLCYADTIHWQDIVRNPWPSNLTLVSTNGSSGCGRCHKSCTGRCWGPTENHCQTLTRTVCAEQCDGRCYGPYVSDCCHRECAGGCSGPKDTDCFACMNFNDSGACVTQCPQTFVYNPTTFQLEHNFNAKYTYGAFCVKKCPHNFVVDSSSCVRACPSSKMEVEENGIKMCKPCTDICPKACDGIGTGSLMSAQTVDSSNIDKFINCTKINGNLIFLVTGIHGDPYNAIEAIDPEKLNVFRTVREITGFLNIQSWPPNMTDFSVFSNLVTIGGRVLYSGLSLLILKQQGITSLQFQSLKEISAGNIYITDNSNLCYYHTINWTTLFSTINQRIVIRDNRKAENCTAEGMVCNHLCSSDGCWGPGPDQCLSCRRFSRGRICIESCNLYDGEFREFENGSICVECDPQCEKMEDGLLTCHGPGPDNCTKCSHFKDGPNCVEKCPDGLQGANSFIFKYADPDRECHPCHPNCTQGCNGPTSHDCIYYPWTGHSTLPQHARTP
Description: ELISA on extracellular domains of ErbB family proteins, absorbance; antibody concentration not given.

Assay [2] addresses T2, HER3 extracellular domain (R&D Systems, #348-RB-050) (human, UniProt P21860 20-643).
T2 construct: extracellular domain; Purchased
The assay is described as above.

The target in a further assay is T3, EGFR-ECD-Fc (human, UniProt P00533 25-645).
T3 construct: extracellular domain; Produced in the same manner as HER2-ECD-Fc; not shown: hinge region of human IgG1 and Fc portion (CH2-CH3), as in HER2-ECD-Fc
Described as above.

The target in assay [3] is T4, HER2 extracellular domain of a rhesus monkey (Sino Biological Inc., #90020-K08H) (rhesus monkey, UniProt I0FM22 23-652).
T4 construct: extracellular domain; Purchased; also called rhesus monkey HER2
The assay is described as follows: ELISA on HER2 extracellular domains of five species, absorbance; antibody concentration not given.

The target in another assay is T5, Rat (rat, UniProt P06494).
T5 construct: extracellular domain; also called HER2 extracellular domain of a rat (Sino Biological Inc., #80079-R08H); rat HER2
The description is as above.

For the next assay, the target named is T6, Mouse (mouse, UniProt P70424).
T6 construct: extracellular domain; also called HER2 extracellular domain of a mouse (Sino Biological Inc., #50714-M08H); mouse HER2
The assay is described as above.

Another assay addresses T7, Domain2 (human, UniProt P04626).
T7 construct: single sub-domain of the extracellular domain; produced in animal cells, purified with Protein-A; also called HER2 sub-domain 2 with hinge region and Fc region of human IgG1
Description: ELISA on HER2 sub-domain Fc fusions, absorbance; antibody concentration not given.

The next assay addresses T8, Domain1 (human, UniProt P04626).
T8 construct: single sub-domain of the extracellular domain; produced in animal cells, purified with Protein-A; also called HER2 sub-domain 1 with hinge region and Fc region of human IgG1
Described as above.

Another assay addresses T9, Domain3 (human, UniProt P04626).
T9 construct: single sub-domain of the extracellular domain; produced in animal cells, purified with Protein-A; also called HER2 sub-domain 3 with hinge region and Fc region of human IgG1
Described as above.

Another assay has as its target T10, HER2-ECD-His protein (human, UniProt P04626 23-652).
T10 construct: extracellular domain; not shown: His tag
The assay is described as follows: SPR (Biacore 3000), antibody captured by anti-human IgG, HER2-ECD-His analyte, 1:1 model. On the procedure:
All the experiments were performed using Biacore 3000. First, the goat antibodies to human IgG were immobilized at a concentration of 1000 RU to a CM5 sensor chip via an amine coupling method. […] Before binding to HER2-ECD-His protein, each antibody was bound at a rate of 50 μL/min for 180 seconds, and allowed the buffer to flow thereonto for stabilization purpose. […] The sensor chip was recycled by allowing 10 mM Glycine-HCl (pH 1.5) buffer to flow thereonto. All the sensorgram data was analyzed via a 1:1 interaction model using BIAevaluation software.

T5 sequence (P06494 23-654): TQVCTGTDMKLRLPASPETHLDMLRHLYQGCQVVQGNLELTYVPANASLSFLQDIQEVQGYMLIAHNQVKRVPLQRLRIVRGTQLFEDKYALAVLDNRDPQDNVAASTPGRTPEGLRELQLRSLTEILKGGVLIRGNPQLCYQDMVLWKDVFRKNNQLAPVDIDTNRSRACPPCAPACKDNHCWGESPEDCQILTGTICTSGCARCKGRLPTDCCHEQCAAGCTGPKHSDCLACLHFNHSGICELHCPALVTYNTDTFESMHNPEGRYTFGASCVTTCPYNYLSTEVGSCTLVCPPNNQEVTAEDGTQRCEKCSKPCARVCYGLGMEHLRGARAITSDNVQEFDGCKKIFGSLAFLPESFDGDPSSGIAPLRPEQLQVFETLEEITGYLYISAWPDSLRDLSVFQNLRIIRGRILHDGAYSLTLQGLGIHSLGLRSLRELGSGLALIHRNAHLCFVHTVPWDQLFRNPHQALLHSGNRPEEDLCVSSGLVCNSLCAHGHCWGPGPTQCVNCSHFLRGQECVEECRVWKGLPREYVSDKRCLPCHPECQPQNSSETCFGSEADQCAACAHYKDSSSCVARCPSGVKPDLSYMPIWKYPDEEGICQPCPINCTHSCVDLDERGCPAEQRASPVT
T6 sequence (P70424 23-653): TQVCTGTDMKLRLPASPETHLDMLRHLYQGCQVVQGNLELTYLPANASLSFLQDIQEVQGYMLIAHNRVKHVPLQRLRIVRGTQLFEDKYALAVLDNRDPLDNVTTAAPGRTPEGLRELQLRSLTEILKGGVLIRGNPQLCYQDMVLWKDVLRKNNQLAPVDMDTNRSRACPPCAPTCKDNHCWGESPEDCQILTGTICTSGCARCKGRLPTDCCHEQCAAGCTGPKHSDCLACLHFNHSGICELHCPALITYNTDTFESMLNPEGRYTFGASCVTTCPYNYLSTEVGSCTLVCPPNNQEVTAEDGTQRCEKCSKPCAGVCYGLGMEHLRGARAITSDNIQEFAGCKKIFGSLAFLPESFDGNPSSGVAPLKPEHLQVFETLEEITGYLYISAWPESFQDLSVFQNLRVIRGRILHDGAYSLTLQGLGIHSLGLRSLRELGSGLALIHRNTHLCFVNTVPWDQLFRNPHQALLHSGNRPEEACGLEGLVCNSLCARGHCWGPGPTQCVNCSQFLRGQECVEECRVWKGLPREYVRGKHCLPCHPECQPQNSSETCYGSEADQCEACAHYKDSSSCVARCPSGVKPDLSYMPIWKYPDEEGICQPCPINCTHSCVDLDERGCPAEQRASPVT

B1: 1E11 antibody (antibody, V domains shown)
VH: EVKLVESGGGLVQPGGSLKLSCAASGFTFSSYTMSWVRQTPEKRLEWVAYISNGGGSTYYPDTVKGRFTISRDNAKNTLYLQMSSLKSEDTAMYYCARHLGGTASFDYWGQGTTVTVSS
VL: DIQMTQSPASQSASLGESVTITCLASQTIGTWLAWYQQKPGKSPQLLIYVATSLADGVPSRFSGSGSGTKFSFKISSLQAEDFVSYYCQQLYSTPWTFGGGTKLELK
notes: Mouse variable regions; also called 1E11 clones; chimeric 1E11
As for B1, the binding result is given as “binds” with ECD; “no binding” in assay [1]; “no binding” in assay [2]; “no binding” with EGFR-ECD-Fc; “binds” in assay [3]; “no binding” in the assay with Rat. Moreover, the binding result with Mouse, with Domain2, with Domain1 and with Domain3 was “no binding” in each case. This molecule yielded a Kd in the assay with HER2-ECD-His protein of 16 nM. The molecule also returned a koff with HER2-ECD-His protein of 0.00047 s⁻¹. Further, the kon with HER2-ECD-His protein was 30000 M⁻¹ s⁻¹.
